One experiment concerns the target T1, snFPITE-n1 (snFPITE) (Phascolopsis gouldii, UniProt Z9UHO8WHJ2).
T1 construct: native, purified from S. nudus intestine / intestinal fluid by chromatography
T1 sequence (Z9UHO8WHJ2 1-239): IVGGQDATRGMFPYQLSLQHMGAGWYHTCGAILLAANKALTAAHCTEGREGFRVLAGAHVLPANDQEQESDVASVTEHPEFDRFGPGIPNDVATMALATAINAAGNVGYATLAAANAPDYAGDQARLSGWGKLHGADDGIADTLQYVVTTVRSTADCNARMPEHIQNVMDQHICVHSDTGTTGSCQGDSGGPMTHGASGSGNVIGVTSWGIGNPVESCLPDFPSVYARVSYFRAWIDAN
As to the kind of experiment: inhibition of fibrin lysis or plasminogen activation, SDS-PAGE. The experiment is classed as biochemical. The conditions noted are these: 2.5 mM, 30 min pre-incubation; purified native snFPITE (called snFPITE-n1); enzyme also purified on Arg-Sepharose 4B.

Experiment [1] deals with plasminogen, biotin-labeled (human). As to the kind of experiment: BLI; GatorPrime (GatorPivot in the results), streptavidin (SA-XT) biosensors; biotin-labeled plasminogen or fibrinogen immobilised, snFPITE in solution; 30 °C, 1000 rpm; association 2–3 min, dissociation 2–5 min. (In general: In BLI a coated tip is dipped into the sample, and binding shifts an interference pattern.)

Experiment [2] addresses fibrinogen, biotin-labeled (UniProt P02671). The experiment is described as above.

Broadly, the Kd is a measure of binding affinity in units of concentration.

Chain of fibrinogen, biotin-labeled (P02671 36-866, chain 1 of 3): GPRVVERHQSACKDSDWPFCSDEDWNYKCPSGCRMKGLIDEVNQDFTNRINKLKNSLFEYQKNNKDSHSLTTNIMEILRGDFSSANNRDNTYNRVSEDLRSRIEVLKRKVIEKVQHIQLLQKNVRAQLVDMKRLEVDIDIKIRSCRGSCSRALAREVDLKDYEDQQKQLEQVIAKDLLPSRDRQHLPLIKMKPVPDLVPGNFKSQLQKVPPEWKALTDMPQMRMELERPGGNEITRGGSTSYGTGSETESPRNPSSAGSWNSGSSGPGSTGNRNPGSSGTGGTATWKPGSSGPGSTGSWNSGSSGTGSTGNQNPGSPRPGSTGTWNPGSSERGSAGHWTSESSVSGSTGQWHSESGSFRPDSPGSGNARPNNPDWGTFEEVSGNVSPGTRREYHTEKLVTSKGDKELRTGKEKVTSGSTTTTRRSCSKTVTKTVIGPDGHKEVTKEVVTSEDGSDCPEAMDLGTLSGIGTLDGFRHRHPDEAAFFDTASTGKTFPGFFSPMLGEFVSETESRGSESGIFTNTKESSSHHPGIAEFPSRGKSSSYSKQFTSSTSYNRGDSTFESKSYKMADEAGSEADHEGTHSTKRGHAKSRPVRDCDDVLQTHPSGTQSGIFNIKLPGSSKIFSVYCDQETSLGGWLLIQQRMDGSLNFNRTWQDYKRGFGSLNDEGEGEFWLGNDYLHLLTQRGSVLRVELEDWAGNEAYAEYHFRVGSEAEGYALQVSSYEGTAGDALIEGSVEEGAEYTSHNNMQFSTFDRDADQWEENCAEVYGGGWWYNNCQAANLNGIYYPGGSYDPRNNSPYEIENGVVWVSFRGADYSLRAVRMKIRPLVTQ
Chain of fibrinogen, biotin-labeled (P02675 45-491, chain 2 of 3, further chain): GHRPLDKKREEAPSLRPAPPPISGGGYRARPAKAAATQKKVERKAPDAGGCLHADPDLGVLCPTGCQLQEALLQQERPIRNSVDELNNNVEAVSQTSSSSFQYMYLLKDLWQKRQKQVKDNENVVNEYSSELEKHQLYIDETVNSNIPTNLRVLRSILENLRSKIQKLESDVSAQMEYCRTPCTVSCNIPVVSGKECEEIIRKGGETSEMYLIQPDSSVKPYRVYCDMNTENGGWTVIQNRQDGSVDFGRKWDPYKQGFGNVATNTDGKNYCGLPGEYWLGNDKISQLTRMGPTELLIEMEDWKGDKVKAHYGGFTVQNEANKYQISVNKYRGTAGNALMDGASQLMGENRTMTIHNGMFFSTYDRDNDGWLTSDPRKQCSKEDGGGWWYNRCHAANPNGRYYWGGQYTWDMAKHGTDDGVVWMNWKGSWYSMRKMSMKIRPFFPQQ
Chain of fibrinogen, biotin-labeled (P02679 27-453, chain 3 of 3, further chain): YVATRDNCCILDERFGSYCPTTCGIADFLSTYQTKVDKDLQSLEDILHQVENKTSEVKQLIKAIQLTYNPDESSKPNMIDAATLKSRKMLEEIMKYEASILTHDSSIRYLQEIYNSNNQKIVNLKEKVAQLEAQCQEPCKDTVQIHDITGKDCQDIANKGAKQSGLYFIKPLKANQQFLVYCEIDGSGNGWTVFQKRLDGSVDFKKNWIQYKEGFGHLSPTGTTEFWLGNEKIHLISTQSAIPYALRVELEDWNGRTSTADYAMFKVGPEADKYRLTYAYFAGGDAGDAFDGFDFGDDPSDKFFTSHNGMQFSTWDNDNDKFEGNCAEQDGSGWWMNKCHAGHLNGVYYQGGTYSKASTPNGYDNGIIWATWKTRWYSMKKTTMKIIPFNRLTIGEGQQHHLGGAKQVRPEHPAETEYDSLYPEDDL

Regarding `N=C(N)NCCC[C@H](N)C(=O)O` [arginine], at snFPITE-n1 (snFPITE), the “inhibition of fibrin lysis or plasminogen activation, SDS-PAGE” value is recorded as “Lys or Arg inhibited snFPITE-n1”.
As for “small facultative plasminogen-independent thrombolytic enzyme (snFPITE) from Sipunculus nudus”, the Kd in experiment [1] came to 54.7 nM; in experiment [2] it was 0.133 nM.

These data come from article PMC12022309, “A facultative plasminogen-independent thrombolytic enzyme from Sipunculus nudus” (Nature Communications, 2025).
